Patent publication US20060241020A1, “Protein tyrosine phosphatase inhibitors” (Applied Research Systems ARS Holdings N.V., priority 2002, published 2006)
Where a chain is given by its changes, count along the chain named. Entries after “also recorded” stand apart in the source; their conditions may differ. Values belong to the molecule of their own block, whether it stands above or below them. Square brackets hold non-standard residues; d marks the D form. Ends that are not written are not given here. pY = N[C@@H](Cc1ccc(OP(=O)(O)O)cc1)C(=O)O

Key:
[1] = target: T1, PTP-1B DA (trapping mutant) (Homo sapiens, UniProt P18031, D181A); assay: SPOT analysis, membrane peptides probed with radiolabeled PTP; format: binding; settings: for SPOT binding to PTP1B trapping mutant: 15-mer peptides with phospho-Tyr on membrane; for SPOT binding to PTP1B trapping mutant, double phosphorylated peptide: two phosphorylated Tyr, compared with single ones
T1 construct: specific primers corresponding to the beginning and the end of the catalytic domain of every PTPs were used; made in house; host or cells: Escherichia coli BL21 (codon +)
T1 sequence (P18031 3-277 D181A limits assumed): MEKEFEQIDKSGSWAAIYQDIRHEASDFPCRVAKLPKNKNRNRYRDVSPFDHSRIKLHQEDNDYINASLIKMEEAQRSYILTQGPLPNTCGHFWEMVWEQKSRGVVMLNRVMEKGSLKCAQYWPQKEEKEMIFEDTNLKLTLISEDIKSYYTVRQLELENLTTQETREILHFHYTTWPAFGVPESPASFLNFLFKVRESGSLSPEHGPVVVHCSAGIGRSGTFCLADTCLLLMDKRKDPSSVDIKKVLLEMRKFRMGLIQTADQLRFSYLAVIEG
Protocol: (§1) Labelling of GST-PTP for the SPOT analysis was performed as follows: 2 to 5 μg of GST fusion proteins were bound to glutathion-sepharose beads (Amersham Pharmacia Biotech) at 4° C. After washes GST fusion proteins were radiolabeled by 50 units of protein kinase from bovine heart (Sigma) in presence of 35 μCi of (γ-32P) ATP in PKA buffer (20 mM Tris pH 7.5, 100 mM NaCl, 12 mM MgCl2, 1 mM DTT) for 30 minutes on ices. After washes, fusion proteins were eluted from beads by 10 mM free glutathione in 50 mM Tris, pH 8.0 (28).
(§2) Peptides were manually synthesized on derivatized cellulose membrane provided by Sigma-Genosys, which also provided the 20 Fmoc-amino acids active esters. Fmoc-phosphotyrosines from Novabiochem (#04-12-1156) were incorporated in presence of the coupling reagent, N,N′-Diisopropylcarbodiimide (DIC; Sigma) and hydroxybenzotriale (HOBt; Fluka; Espanel et al., submitted).
(§3) Membranes were blocked (at least 2 hours) and probed at 4° C. in Western wash buffer (10 mM Tris, pH 7.4, 0.1% Triton X-100 and 150 mM NaCl)+SPOT blocking buffer (Sigma-Genosys). After 2 hours, membranes were washed several times in Western wash buffer and were autoradiographed.

Sap1 = target: T2, Sap1 (Homo sapiens, UniProt Q9HD43); assay: Km of example phosphopeptide substrates (Table IX summary); format: biochemical; settings: phosphopeptide as Sap1 substrate
T2 sequence (Q9HD43 820-1079 limits assumed): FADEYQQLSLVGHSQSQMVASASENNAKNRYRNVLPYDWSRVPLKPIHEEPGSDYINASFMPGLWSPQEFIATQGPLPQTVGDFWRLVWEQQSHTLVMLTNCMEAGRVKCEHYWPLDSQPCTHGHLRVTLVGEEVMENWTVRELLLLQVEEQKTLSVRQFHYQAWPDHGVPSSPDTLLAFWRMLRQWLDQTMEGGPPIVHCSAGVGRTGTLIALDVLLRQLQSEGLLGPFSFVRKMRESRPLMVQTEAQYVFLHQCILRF

PTP1B trapping mutant [2] = target: T3, PTP1B trapping mutant (Homo sapiens, UniProt P18031, D181A); assay: ELISA of phosphorylated phage clones on coated GST-PTP; format: binding; settings: PTP1B selected phage clones, src-phosphorylated
T3 construct: These two restriction sites were used to clone the catalytic domain in frame into a pGEX4TK vector (Pharmacia); made in house; host or cells: Escherichia coli BL21 (codon +)
T3 sequence (P18031 3-277 D181A limits assumed): T1 sequence (P18031 3-277 D181A limits assumed)
Protocol: (§4) Single clones were amplified as described previously. The coating was done with GST-PTP or GST alone in PBS (2 μg per well in a 96 well plate format). Phosphorylation of the phages was performed following the described protocol (with and without 3 U of src kinase, in order to check the phospho-Tyr specificity of the recognition, thus be sure that positives were catalytic domain specific as shown in (30)) and during this process, each well was blocked with a solution of 5% fat free powder milk in PBS. Wells were washed 5 times in PBS-Tween® 0.5% and phages were incubated with the PTP-GST or GST in 100 μl Trapping Buffer (20 mM Tris pH 7.5, 150 mM NaCl and 1 mM EDTA) for 2 hours at 4° C. Wells were extensively washed and blocked for 1 hour in PBS-5% Milk.

PTP1B trapping mutant [3] = target: T3, PTP1B trapping mutant; assay: Panning of the tyrosine-biased phage library and sequencing of trapped clones; format: binding; settings: after three pannings, sequenced trapped phages
Protocol: (§5) Phages (10^9-10^10) were incubated for three hours at 30° C. in the kinase buffer (25 mM Tris pH7.5, 5 mM MgCl2, 2.5 mM MnCl2, 2.5 mM DTT and 1 mM ATP) in a total volume of 20 μl. […] Therefore, the total library was phosphorylated and passed through an antiPTyr column (Upstate). The bound phages were eluted with phenylphosphate, and the clones were passed twice again in the column. The amplified Tyrosine-carrying phages were then stocked at 4° C. in TE and used for the trapping experiment (see below). […] Furthermore, no sequences were found twice. […] This was checked following our phosphorylation protocol and using (γ-32P) ATP as a tracer.
(§6) Phages (10^8 to 10^9) were incubated in kinase buffer (20 mM Tris pH7.5, 5 mM MgCl2, 2.5 mM MnCl2, 1 mM ATP, 2.5 mM DTT and with or without 3 Units of src kinase) for 3 hours at 30° C. The p60src, purified from Baculovirus, was purchased from Upstate Biotech. Gluthation-Sepharose beads were pre-coated with 3 μg of either GST or PTP-GST for 4 hours at 4° C. in a solution of Trapping Buffer (20 mM Tris pH 7.5, 150 mM NaCl and 1 mM EDTA) with 1% BSA final. The phages were first pre-cleared using GST-beads for 30 minutes at 4° C., spun down and the supernatant was incubated with the coated PTP-GST for 1.5 hours at 4° C. with a constant shaking. Finally beads were spun down and washed several times (5 times for the first panning, then 10 times) with a solution of PBS with 0.25% Tween® final. Phages were eluted from PTP-GST by an acidic treatment (glycine buffer, pH 2.7) for 10 minutes at RT with a constant shaking, beads were spun down and phages were recovered in the supernatant. One tenth volume of a 1 M Tris pH 9.0 solution was added in order to restore the pH. Phages were finally titred in both fractions (bound and unbound) and the rest of the bound fraction was used to infect XL1 MRF′ Bacteria (Stratagene) following described procedures (24). The day after, cells were scraped and phages were amplified using helper phage M13K07 (Pharmacia) using the manufacturer's procedures.
(§7) When an increase in the number of trapped clones was observed, phages where purified as single clones and colony-PCR was performed using phage primers, forward: 5′ATG AAA AAG TCT TTA GTC CTC3′ and reverse: 5′CAG CTT GAT ACC GAT AGT TGC3′. The PCR products were then purified and sequenced using the same primers. Sequences were read in both direction using SeqmanII Software.

PTP-Sap1DA = target: T4, PTP-Sap1DA (Homo sapiens, UniProt Q9HD43, D986A); assay: SPOT analysis, membrane peptides probed with radiolabeled PTP; format: binding
T4 construct: specific primers corresponding to the beginning and the end of the catalytic domain of every PTPs were used; made in house; host or cells: Escherichia coli BL21 (codon +)
T4 sequence (Q9HD43 820-1079 D986A limits assumed): T2 sequence (Q9HD43 820-1079 limits assumed) with D167A
Protocol: as §1, §2, §3

WT PTP1B = target: T5, WT PTP1B (Homo sapiens, UniProt P18031); assay: Dephosphorylation assay on GST-PEP constructs; format: biochemical; settings: not shown
T5 construct: These two restriction sites were used to clone the catalytic domain in frame into a pGEX4TK vector (Pharmacia); GST (N); made in house; host or cells: Escherichia coli BL21 (codon +)
T5 sequence (P18031 3-277 limits assumed): T1 sequence (P18031 3-277 D181A limits assumed) with A179D
Protocol: PEP-GST constructs were prepared as follows: the primers used correspond to the pVIII capsid sequence of M13+two restriction sites (XhoI and NotI): 5′TATCTCGAGTCTTTCGCTGCTGAGGGT GA3′ for the sense and 5′ATAGCGGCCGCTTGCAGGGAGTCAAAGGCC G3′ for the antisense. The DNA of the phage was directly amplified by adding 10^9 phages to the PCR mix. After PCR using Herculase Polymerase (Stratagene), the DNA fragments (100 bp) were purified using Microcon® PCR (Millipore) and gel extraction was performed with Utrafree®-DA (Millipore). The cloning and the protein purification were finally accomplished following the same protocol as for the PTPs, with the only difference that TKB1 (Stratagene) bacteria were transformed and a single colony was grown and induced for protein production and phosphorylation exactly as described by the manufacturer. Again, all constructs were checked by DNA sequencing before protein production.
100 ng of PEP-GST construct was incubated with 10 ng of PTP wild type in PTP buffer (50 mM Hepes pH 7.4, 0.05% Nonidet NP-40 and 1 mM DTT). The reaction was stopped by mixing equal volume aliquots with a solution of 50 mM vanadate at different laps of time. […]

PTP-Sap1 [4] = target: T6, PTP-Sap1 (Homo sapiens, UniProt Q9HD43, D986A); assay: ELISA of phosphorylated phage clones on coated GST-PTP; format: binding; settings: PTP-Sap1 selected phage clones, src-phosphorylated
T6 construct: These two restriction sites were used to clone the catalytic domain in frame into a pGEX4TK vector (Pharmacia); made in house; host or cells: Escherichia coli BL21 (codon +)
T6 sequence (Q9HD43 820-1079 D986A limits assumed): T2 sequence (Q9HD43 820-1079 limits assumed) with D167A
Protocol: as §4

PTP-Sap1 R88N = assay: SPOT analysis, membrane peptides probed with radiolabeled PTP; format: binding; settings: 15-mer peptides with phosphotyrosine on membrane
Protocol: as §1, §2, §3

PTP-Sap1 [5] = target: T6, PTP-Sap1; assay: Panning of the tyrosine-biased phage library and sequencing of trapped clones; format: binding; settings: after three rounds, sequenced trapped phages
Protocol: as §5, §6, §7

SHP1 = SHP1 (Homo sapiens, UniProt P29350); settings: reference (40); cited from earlier work
Chain of SHP1 (P29350 whole entry): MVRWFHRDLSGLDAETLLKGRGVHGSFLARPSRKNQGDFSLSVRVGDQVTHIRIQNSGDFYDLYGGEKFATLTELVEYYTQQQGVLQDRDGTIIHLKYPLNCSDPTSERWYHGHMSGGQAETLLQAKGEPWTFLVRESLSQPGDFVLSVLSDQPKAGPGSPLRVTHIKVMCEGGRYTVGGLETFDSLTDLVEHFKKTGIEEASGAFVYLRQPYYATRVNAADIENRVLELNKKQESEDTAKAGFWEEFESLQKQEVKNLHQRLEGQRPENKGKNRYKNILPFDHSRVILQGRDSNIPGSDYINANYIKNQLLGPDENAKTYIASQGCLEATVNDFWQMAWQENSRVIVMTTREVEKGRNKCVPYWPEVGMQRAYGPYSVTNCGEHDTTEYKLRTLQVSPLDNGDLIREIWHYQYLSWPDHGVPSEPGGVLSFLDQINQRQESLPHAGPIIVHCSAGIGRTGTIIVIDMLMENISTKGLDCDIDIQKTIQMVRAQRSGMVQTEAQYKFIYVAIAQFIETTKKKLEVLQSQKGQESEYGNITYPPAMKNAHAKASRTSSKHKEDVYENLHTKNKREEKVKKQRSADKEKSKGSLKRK

Molecule: EFQSPVpYGNFADPAK (EFQSPV[pY]GNFADPAK) [Clone 1b-11]
SPOT binding to PTP1B trapping mutant [1]: All except two sequences (1b-6 and 1b11) were recognized

Molecule: EFEPIpYNAYQVDPAK (EFEPI[pY]NAYQVDPAK) [Clone 1b-6]
SPOT binding to PTP1B trapping mutant [1]: All except two sequences (1b-6 and 1b11) were recognized

Molecule: EFpYNLYEGVMSDPAK (EF[pY]NLYEGVMSDPAK) [Clone 1b-9]
ELISA (PTP1B trapping mutant [2]): not found in ELISA | SPOT binding to PTP1B trapping mutant [1]: confirmed in SPOT

Molecule: EFpYGTFAPKPLDPAK (EF[pY]GTFAPKPLDPAK) [Clone 1b-13]
SPOT binding to PTP1B trapping mutant [1]: signal is weaker

Molecule: EFpYGQFpYGPPQDPAK (EF[pY]GQF[pY]GPPQDPAK) [x2]
SPOT binding to PTP-Sap1DA (PTP-Sap1DA; 15-mer peptides with phosphotyrosine on membrane): comparable SPOT results for both phosphorylated Tyrosines

Molecule: EFpYATYGSAATDPAK (EF[pY]ATYGSAATDPAK) [Clone 1b-1]
Copy in the pool (PTP1B trapping mutant [3]): 4× | SPOT binding to PTP1B trapping mutant, double phosphorylated peptide [1]: did not seem to react as well as single ones | Dephosphorylation of displayed peptide (GST fusion) by WT PTP1B (WT PTP1B): can dephosphorylate the displayed peptide

Molecule: EFLpYANVERSSDPAK (EFL[pY]ANVERSSDPAK) [Sm-8]
SPOT binding to PTP-Sap1 R88N (PTP-Sap1 R88N): did not bind | SPOT binding to PTP-Sap1 R88N (PTP-Sap1 R88N; listed as sm-8): not recognized

Molecule: EFQpYZGEYTRGDPAK (EFQ[pY]XGEYTRGDPAK; not fully specified (residue 5)) [Clone 1b-4]
ELISA (PTP1B trapping mutant [2]): not found in ELISA | SPOT binding to PTP1B trapping mutant [1]: confirmed in SPOT; also recorded: best substrate in this assay | SPOT binding to PTP1B trapping mutant, double phosphorylated peptide [1]: binding became more efficient

Molecule: EFGATpYGVYTSDPAK (EFGAT[pY]GVYTSDPAK) [Sm-2]
SPOT binding to PTP-Sap1 R88N (PTP-Sap1 R88N): strongest signals

Molecule: EFATpYEEYALMDPAK (EFAT[pY]EEYALMDPAK) [Clone 1b-12]
SPOT binding to PTP1B trapping mutant, double phosphorylated peptide [1]: did not seem to react as well as single ones

Molecule: EFpYGQIGDHLVDPAK (EF[pY]GQIGDHLVDPAK) [Sm-11]
SPOT binding to PTP-Sap1 R88N (PTP-Sap1 R88N): strongest signals

Molecule: O.O.O.O.O.O.O.O.O.O=C([O-])[C@@H]1[O][Sb]2([O-])([O][Sb]34([OH])[O][C@H]([C@H](O)CO)[C@H]([O]3)[C@H](C(=O)[O-])[O]4)[O][C@H]([C@H](O)CO)[C@@H]1[O]2.[Na+].[Na+].[Na+] [sodium stibogluconate]
Inhibition of SHP1 (SHP1): strongly inhibits

Continued, values first:

Km (Sap1): 7 µM
Molecule: EFpYGAFA/G (chain 1 EF[pY]GAFA; chain 2 EF[pY]GAFG)

Copy in the pool (PTP1B trapping mutant [3]): 2×
Molecule: EFpYGTYRGQDSDPAK (EF[pY]GTYRGQDSDPAK) [Clone 1b-14]

ELISA (PTP-Sap1 [4]): recognized in ELISA
Molecule: EFpYGPVASDASDPAK (EF[pY]GPVASDASDPAK) [x58]

Copy in the pool (PTP-Sap1 [5]): 3X
Molecule: EFpYGTFAQSAEDPAK (EF[pY]GTFAQSAEDPAK) [x9]

ELISA (PTP-Sap1 [4]): strongest | Copy in the pool (PTP-Sap1 [5]): 2X | SPOT binding to PTP-Sap1DA, doubly phosphorylated (PTP-Sap1DA; doubly phosphorylated sequence): weaker signal
Molecule: EFpYGAYSNADLDPAK (EF[pY]GAYSNADLDPAK) [x5]

SPOT binding to PTP-Sap1 R88N (PTP-Sap1 R88N): strongest signals
Molecule: EFIpYGSFHQTADPAK (EFI[pY]GSFHQTADPAK) [Sm-15]
